Results taken from patent US20110200552A1.

Assays:
[1] = target: rhTRAIL variant D218H; assay: competitive ELISA, soluble DR5-Ig varied, immobilised DR4-Ig
[2] = target: rhTRAIL variant D218Y; assay: as above
[3] = target: death receptor 5 (DR5, TRAIL-R2) on cells (UniProt O14763); assay: cell-based or functional assay
[4] = target: death receptor 4 (DR4, TRAIL-R1) on cells (UniProt O00220); assay: cell-based or functional assay

Chain of WT rhTRAIL (TRAIL amino acids 114-281 preceded by a methionine) (ligand) (P50591 114-281): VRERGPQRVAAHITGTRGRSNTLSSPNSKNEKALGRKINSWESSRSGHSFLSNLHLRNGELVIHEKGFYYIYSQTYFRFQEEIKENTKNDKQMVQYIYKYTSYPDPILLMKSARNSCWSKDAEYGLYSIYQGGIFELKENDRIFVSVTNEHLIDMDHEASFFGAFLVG

Row | Substance | fold less efficient in achieving 50% reduction of binding, against rhTRAIL WT [1] | fold less efficient in achieving 50% reduction of binding, against rhTRAIL WT [2] | apoptosis (Annexin V positivity) in Colo205 cells [3] | apoptosis (Annexin V staining) in EM-2 cells, 24 h; fold lower concentration than WT [4] | apoptosis (Annexin V staining) in ML-1 cells, 24 h; fold lower concentration than WT [4]
1 | DR5-Ig receptor chimera (from UniProt O14763 56-182) (Fc fusion) | > 9 fold | > 9 fold | – | – | –
2 | WT rhTRAIL (TRAIL amino acids 114-281 preceded by a methionine) (ligand) | – | – | 20 ng/mL | – | –
3 | rhTRAIL variant R149I (ligand) | – | – | – | 5 fold | 2 fold
4 | rhTRAIL variant S215D (ligand) | – | – | – | 5 fold | 2 fold
